Assay results from patent publication US20260184768A1.

Tests used:
[1] = target: full-length PcrV.6xhis (Pseudomonas aeruginosa); assay: SPR (Biacore T200), mAb captured via anti-human Fc, PcrV injected, 25 C
[2] = target: full-length PcrV.6xhis (Pseudomonas aeruginosa); assay: SPR (Biacore T200), mAb captured via anti-human Fc, PcrV injected, 37 C

## REGN1932 (antibody)
[1]
  90 nM Ag Bound (RU): -5.9 RU
[2]
  90 nM Ag Bound (RU): -22.5 RU
